Measured values from US20250136673A1.

Target: recombinant human VEGF (R&D Systems, 293-VE-010) (human) (UniProt P15692)
Assay: Octet HTX biosensor kinetics; antibody at 10 ug/mL in 1x kinetics buffer; recombinant human VEGF 200 nM to 3.125 nM

Sequence of UniProt P15692 (P15692 other isoform, or with tags, fused parts or gaps limits assumed): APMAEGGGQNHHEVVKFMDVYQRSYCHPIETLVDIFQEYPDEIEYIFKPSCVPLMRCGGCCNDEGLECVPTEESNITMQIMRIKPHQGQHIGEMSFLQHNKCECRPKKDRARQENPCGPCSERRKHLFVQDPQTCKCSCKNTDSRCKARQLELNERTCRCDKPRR

Substance: mouse anti-human VEGF monoclonal antibody (anti-hVEGF MmAb; R&D Systems, MAB293-100)
- Kd: 0.229 nM
- koff: 7.77e-05 s⁻¹
- kon: 340000 M⁻¹ s⁻¹
